For experiment [1], the target named is endogenous PKAC (HEK293T) (human (endogenous in HEK293T)) (UniProt P17612).
The target of experiment [2] is mCherry-ARHGAP36. Kind of experiment: FLIM-FRET (Venus-YFP donor fluorescence lifetime) in MDCK cells. Particulars: n≥4 each; mean±s.d.; donor alone (PKAC-YFP) est. 3.0 ns; parent: est. 2.4; read off a plot.
Experiment [3] addresses PKAC-YFP (mouse PKAC-Venus-YFP), in MDCK cells (UniProt P05132). The experiment is described as above. To be noted: n≥4 each; mean±s.d.; donor alone (PKAC-YFP) est. 3.0 ns; parent: est. 2.4; read off a plot.

Sequence of ARHGAP36-N2 (118–194) (Q6ZRI8 149-225): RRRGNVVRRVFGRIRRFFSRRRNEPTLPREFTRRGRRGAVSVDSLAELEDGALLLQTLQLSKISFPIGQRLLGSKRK

Take “ARHGAP36-N2 (118–194) (from UniProt Q6ZRI8-2 118-194) (domain or fragment)”: the reduction in mean FRET emission ratio of the PKA biosensor AKAR4-NES in HEK293T cells stimulated with Forskolin and IBMX in experiment [1] was 25.1%.

Turning to “PKAC-YFP (mouse PKAC-Venus-YFP), in MDCK cells (from UniProt P05132) E127A; E170A; E230A”, the response in experiment [2] is 3 ns.

For the substance mCherry-ARHGAP36 (natural protein), the reduction in mean FRET emission ratio of the PKA biosensor AKAR4-NES in HEK293T cells stimulated with Forskolin and IBMX in experiment [1] turned out to be 25.7%.

On to mCherry-ARHGAP36 R153D; R154D; V157D, for which the response in experiment [3] amounted to 3 ns.

The values above are taken from PMC5059767.
